{"source": "paper PMC9712689", "about": "(Communications Biology, 2022)", "binders": {"B1": {"name": "RlpA-SPOR (domain or fragment, P. aeruginosa PAO1, UniProt Q9X6V6 264-342, looked up)", "chain": "ADGLYLQVGAFANPDAAELLKAKLSGVTAAPVFISSVVRNQQILHRVRLGPIGSADEVSRTQDSIRVANLGQPTLVRPD"}, "B2": {"name": "RlpA-Δ81 (domain or fragment)", "chain": "YTVLGKTYYPMNDARAYRMVGTASWYGTKFHGQATANGETYDLYGMTAAHKTLPLPSYVRVTNLDNGKSVIVRVNDRGPFYSDRVIDLSFAAAKKLGYAETGTARVKVEGIDPVQWWAQRGRPAPMVLAQPKQAVAQAAPAAAQTQAVAMAQPIETYTPPPAQHAAAVLPVQIDSKKNASLPADGLYLQVGAFANPDAAELLKAKLSGVTAAPVFISSVVRNQQILHRVRLGPIGSADEVSRTQDSIRVANLGQPTLVRPD", "notes": "source: E. coli BL21-star (DE3), purified (Ni-NTA)"}, "B3": {"name": "RlpA-Δ32·MltF2 complex (MST) (complex)", "chain 1": "PQQPARQAGISGPGDYSRPHRDGAPWWDVDVSRIPDAVPMPHNGSVKANPYTVLGKTYYPMNDARAYRMVGTASWYGTKFHGQATANGETYDLYGMTAAHKTLPLPSYVRVTNLDNGKSVIVRVNDRGPFYSDRVIDLSFAAAKKLGYAETGTARVKVEGIDPVQWWAQRGRPAPMVLAQPKQAVAQAAPAAAQTQAVAMAQPIETYTPPPAQHAAAVLPVQIDSKKNASLPADGLYLQVGAFANPDAAELLKAKLSGVTAAPVFISSVVRNQQILHRVRLGPIGSADEVSRTQDSIRVANLGQPTLVRPD", "chain 2": "RITGQPDNWHREQPETRDLASIRRAGVLKVLVNQSRNSSGEVKGEPIGVEYRRLRAFEQYLNSRSPSARNLTLKLIPKPKDQLLAALQRGEGDLVAPGELLPAHDGLQVSPSAPVRADVPLVLVARKGNRRYTRLEQLSGRTIPLPAGSAAEGAIELVNQRLAQRRMAPIRIEKLDASLAVEDVMEMVQAGILGFTVVEQPIAERWAKVLPKLRVDRHLVLDNRADMAWYVRRDASTLRATIDRFLADYRAPADQDVAFQRVYRRAYKVRNPLGAADRKRLEAVRPLLQRYARQSSMDWLALAAVAYKESHLNPKARGSGGASGLMQITPAAARSVGVGNVHDKDSNVLAASRYLTKIRKQFFSSKHLDERERLAFTLAAYNMGPERVQNLRTQARRRGLDPNRWFFQVERVAAEEIGMGVVSYVSSVNKYYLAYERERVRLEPGVRAKTATAQK", "modifications": "amine reactive RED-NHS dye"}}, "details_in_all_cases": "both partners purified", "key": {"PBP1a [1]": {"target": "T1, PBP1a (P. aeruginosa PAO1, UniProt Q07806 27-822)", "T1 sequence (Q07806 27-822)": "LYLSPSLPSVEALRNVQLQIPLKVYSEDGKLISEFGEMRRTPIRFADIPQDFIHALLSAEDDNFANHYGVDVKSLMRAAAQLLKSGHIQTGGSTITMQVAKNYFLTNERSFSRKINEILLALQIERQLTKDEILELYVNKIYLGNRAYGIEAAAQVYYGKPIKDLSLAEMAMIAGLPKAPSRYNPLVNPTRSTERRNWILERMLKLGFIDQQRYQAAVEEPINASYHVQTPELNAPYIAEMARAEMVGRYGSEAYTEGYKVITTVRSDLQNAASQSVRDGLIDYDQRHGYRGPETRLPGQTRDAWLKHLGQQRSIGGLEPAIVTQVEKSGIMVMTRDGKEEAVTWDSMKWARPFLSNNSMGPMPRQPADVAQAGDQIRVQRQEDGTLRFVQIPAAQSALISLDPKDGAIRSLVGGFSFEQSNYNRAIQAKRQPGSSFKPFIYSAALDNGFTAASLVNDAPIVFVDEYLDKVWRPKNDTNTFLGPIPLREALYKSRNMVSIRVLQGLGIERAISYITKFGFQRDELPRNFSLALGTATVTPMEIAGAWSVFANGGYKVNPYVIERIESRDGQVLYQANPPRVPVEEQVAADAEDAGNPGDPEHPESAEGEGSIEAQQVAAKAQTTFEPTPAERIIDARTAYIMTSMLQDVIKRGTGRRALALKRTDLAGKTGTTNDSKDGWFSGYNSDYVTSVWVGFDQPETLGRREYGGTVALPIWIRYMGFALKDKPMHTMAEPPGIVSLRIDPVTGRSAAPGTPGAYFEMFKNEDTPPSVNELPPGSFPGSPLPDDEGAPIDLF", "assay": "SPR; RlpA-Δ81 or RlpA-SPOR amine-coupled to its own CM4 chip, partner as analyte; 25 °C; 10 mM HEPES pH 7.4, 150 mM NaCl, 3 mM EDTA, 0.005% P20; alternate fitting model for PBP1a on RlpA-SPOR"}, "TypA [2]": {"target": "T2, TypA (P. aeruginosa PAO1, UniProt Q9HU67 1-605)", "T2 sequence (looked up)": "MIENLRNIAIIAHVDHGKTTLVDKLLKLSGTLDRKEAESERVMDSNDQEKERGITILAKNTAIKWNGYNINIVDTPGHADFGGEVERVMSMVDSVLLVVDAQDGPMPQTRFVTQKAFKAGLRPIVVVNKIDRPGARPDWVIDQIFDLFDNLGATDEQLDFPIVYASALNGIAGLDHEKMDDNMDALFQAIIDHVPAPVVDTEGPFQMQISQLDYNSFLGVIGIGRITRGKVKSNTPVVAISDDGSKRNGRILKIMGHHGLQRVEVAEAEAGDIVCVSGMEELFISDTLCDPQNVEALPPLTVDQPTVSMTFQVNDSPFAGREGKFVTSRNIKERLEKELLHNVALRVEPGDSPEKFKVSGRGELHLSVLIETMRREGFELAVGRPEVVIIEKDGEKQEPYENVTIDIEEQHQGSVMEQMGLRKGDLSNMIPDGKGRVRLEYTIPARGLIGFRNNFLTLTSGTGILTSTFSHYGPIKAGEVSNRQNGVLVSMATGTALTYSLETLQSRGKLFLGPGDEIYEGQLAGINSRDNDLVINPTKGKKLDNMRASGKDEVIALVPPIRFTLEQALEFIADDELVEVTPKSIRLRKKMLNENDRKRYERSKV", "assay": "SPR; RlpA-Δ81 or RlpA-SPOR amine-coupled to its own CM4 chip, partner as analyte; 25 °C; 10 mM HEPES pH 7.4, 150 mM NaCl, 3 mM EDTA, 0.005% P20; alternate fitting model for PBP1a on RlpA-SPOR"}, "MltF2 [3]": {"target": "T3, MltF2 (P. aeruginosa PAO1, UniProt Q9HZY1 1-476)", "T3 sequence (looked up)": "B3 chain 2", "assay": "SPR; RlpA-Δ81 or RlpA-SPOR amine-coupled to its own CM4 chip, partner as analyte; 25 °C; 10 mM HEPES pH 7.4, 150 mM NaCl, 3 mM EDTA, 0.005% P20; alternate fitting model for PBP1a on RlpA-SPOR"}, "MltD [4]": {"target": "T4, MltD (P. aeruginosa PAO1, UniProt Q9I2T2 1-534)", "T4 sequence (looked up)": "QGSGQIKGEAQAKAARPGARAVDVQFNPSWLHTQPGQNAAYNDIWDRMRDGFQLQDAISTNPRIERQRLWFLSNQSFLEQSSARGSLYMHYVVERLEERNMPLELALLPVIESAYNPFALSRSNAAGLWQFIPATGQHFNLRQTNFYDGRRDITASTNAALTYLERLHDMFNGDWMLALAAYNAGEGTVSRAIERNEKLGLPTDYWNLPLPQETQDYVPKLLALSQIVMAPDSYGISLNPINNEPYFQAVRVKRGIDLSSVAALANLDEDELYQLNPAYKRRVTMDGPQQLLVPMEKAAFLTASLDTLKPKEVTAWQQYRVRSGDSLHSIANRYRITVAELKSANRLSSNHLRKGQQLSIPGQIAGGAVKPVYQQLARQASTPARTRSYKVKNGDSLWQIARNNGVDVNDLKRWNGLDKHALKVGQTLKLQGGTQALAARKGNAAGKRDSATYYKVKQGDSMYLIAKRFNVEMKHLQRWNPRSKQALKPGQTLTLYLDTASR", "assay": "SPR; RlpA-Δ81 or RlpA-SPOR amine-coupled to its own CM4 chip, partner as analyte; 25 °C; 10 mM HEPES pH 7.4, 150 mM NaCl, 3 mM EDTA, 0.005% P20; alternate fitting model for PBP1a on RlpA-SPOR"}, "PBP1a [5]": {"target": "T1, PBP1a", "assay": "ITC"}, "SltB1": {"target": "T5, SltB1 (P. aeruginosa PAO1, UniProt Q9HX24 1-340)", "T5 sequence (looked up)": "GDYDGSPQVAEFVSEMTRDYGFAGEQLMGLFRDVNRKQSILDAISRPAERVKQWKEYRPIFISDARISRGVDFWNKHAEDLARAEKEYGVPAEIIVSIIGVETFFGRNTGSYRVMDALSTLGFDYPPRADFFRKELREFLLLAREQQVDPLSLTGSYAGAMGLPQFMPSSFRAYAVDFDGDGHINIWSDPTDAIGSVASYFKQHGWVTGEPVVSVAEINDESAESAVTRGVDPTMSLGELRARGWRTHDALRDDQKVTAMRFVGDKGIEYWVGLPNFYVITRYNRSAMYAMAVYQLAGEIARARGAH", "assay": "ITC"}, "PilA": {"target": "T6, PilA (P. aeruginosa PAO1, UniProt P04739)", "T6 construct": "source: E. coli, purified (Ni-NTA or Strep-Tactin)", "T6 sequence": "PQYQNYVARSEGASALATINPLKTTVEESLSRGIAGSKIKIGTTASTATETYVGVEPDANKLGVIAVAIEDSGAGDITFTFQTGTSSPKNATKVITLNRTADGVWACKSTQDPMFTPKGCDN", "assay": "ITC"}, "PA2854": {"target": "T7, PA2854 (P. aeruginosa PAO1, UniProt Q9HZZ0)", "T7 construct": "source: E. coli, purified (Ni-NTA or Strep-Tactin)", "T7 sequence": "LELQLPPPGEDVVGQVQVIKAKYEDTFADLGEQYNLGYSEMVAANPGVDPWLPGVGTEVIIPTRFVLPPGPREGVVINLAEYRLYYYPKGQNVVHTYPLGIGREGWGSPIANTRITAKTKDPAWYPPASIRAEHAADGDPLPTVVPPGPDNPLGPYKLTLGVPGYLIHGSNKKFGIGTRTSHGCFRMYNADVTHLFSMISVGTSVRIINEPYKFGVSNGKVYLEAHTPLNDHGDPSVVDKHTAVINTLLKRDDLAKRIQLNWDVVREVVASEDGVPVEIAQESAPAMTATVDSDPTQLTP", "assay": "SPR"}, "PilO": {"target": "T8, PilO (P. aeruginosa PAO1, UniProt G3XD51)", "T8 construct": "source: E. coli, purified (Ni-NTA or Strep-Tactin)", "T8 sequence": "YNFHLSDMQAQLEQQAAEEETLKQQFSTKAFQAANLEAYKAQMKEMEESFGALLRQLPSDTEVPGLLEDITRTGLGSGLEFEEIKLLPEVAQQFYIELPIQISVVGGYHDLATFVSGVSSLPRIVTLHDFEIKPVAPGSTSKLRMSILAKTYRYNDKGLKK", "assay": "SPR"}, "PBP1a [6]": {"target": "T1, PBP1a", "assay": "SPR"}, "TypA [7]": {"target": "T2, TypA", "assay": "SPR"}, "MltF2 [8]": {"target": "T3, MltF2", "assay": "SPR"}, "MltD [9]": {"target": "T4, MltD", "assay": "SPR"}, "PBP1a [10]": {"target": "T1, PBP1a", "assay": "MST"}}}
{"binder": "B1", "values": [{"measurement": "Kd", "setting": "PBP1a [1]", "result": 190, "unit": "nM"}, {"measurement": "koff", "setting": "PBP1a [1]", "result": 0.00049, "unit": "s⁻¹"}, {"measurement": "kon", "setting": "PBP1a [1]", "result": 2600, "unit": "M⁻¹ s⁻¹"}, {"measurement": "Kd", "setting": "TypA [2]", "result": 4250, "unit": "nM"}, {"measurement": "koff", "setting": "TypA [2]", "result": 0.00034, "unit": "s⁻¹"}, {"measurement": "kon", "setting": "TypA [2]", "result": 80, "unit": "M⁻¹ s⁻¹"}, {"measurement": "Kd", "setting": "MltF2 [3]", "result": 98, "unit": "nM"}, {"measurement": "koff", "setting": "MltF2 [3]", "result": 0.00077, "unit": "s⁻¹"}, {"measurement": "kon", "setting": "MltF2 [3]", "result": 7900, "unit": "M⁻¹ s⁻¹"}, {"measurement": "Kd", "setting": "MltD [4]", "result": 200, "unit": "nM"}, {"measurement": "koff", "setting": "MltD [4]", "result": 0.0027, "unit": "s⁻¹"}, {"measurement": "kon", "setting": "MltD [4]", "result": 13800, "unit": "M⁻¹ s⁻¹"}, {"measurement": "Kd", "setting": "PBP1a [5]", "result": 104, "unit": "nM"}, {"measurement": "stoichiometry N", "setting": "PBP1a [5]", "result": 0.26}, {"measurement": "Kd", "setting": "SltB1", "result": 9800, "unit": "nM"}, {"measurement": "Kd", "setting": "PilA", "result": 73, "unit": "nM"}, {"measurement": "stoichiometry N", "setting": "PilA", "result": 1}, {"measurement": "Kd", "setting": "PA2854", "result": 1410, "unit": "nM"}, {"measurement": "koff", "setting": "PA2854", "result": 0.00038, "unit": "s⁻¹"}, {"measurement": "kon", "setting": "PA2854", "result": 270, "unit": "M⁻¹ s⁻¹"}, {"measurement": "Kd", "setting": "PilO", "result": 5760, "unit": "nM"}, {"measurement": "koff", "setting": "PilO", "result": 0.00438, "unit": "s⁻¹"}, {"measurement": "kon", "setting": "PilO", "result": 760, "unit": "M⁻¹ s⁻¹"}]}
{"binder": "B2", "values": [{"measurement": "Kd", "setting": "PBP1a [6]", "result": 94, "unit": "nM"}, {"measurement": "koff", "setting": "PBP1a [6]", "result": 0.00177, "unit": "s⁻¹"}, {"measurement": "kon", "setting": "PBP1a [6]", "result": 18800, "unit": "M⁻¹ s⁻¹"}, {"measurement": "Kd", "setting": "PA2854", "result": 2270, "unit": "nM"}, {"measurement": "koff", "setting": "PA2854", "result": 0.00075, "unit": "s⁻¹"}, {"measurement": "kon", "setting": "PA2854", "result": 330, "unit": "M⁻¹ s⁻¹"}, {"measurement": "Kd", "setting": "TypA [7]", "result": 74, "unit": "nM"}, {"measurement": "koff", "setting": "TypA [7]", "result": 0.00047, "unit": "s⁻¹"}, {"measurement": "kon", "setting": "TypA [7]", "result": 6400, "unit": "M⁻¹ s⁻¹"}, {"measurement": "Kd", "setting": "MltF2 [8]", "result": 3, "unit": "nM"}, {"measurement": "koff", "setting": "MltF2 [8]", "result": "4e-05", "unit": "s⁻¹"}, {"measurement": "kon", "setting": "MltF2 [8]", "result": 14900, "unit": "M⁻¹ s⁻¹"}, {"measurement": "Kd", "setting": "MltD [9]", "result": 56, "unit": "nM"}, {"measurement": "koff", "setting": "MltD [9]", "result": 0.0039, "unit": "s⁻¹"}, {"measurement": "kon", "setting": "MltD [9]", "result": 69000, "unit": "M⁻¹ s⁻¹"}]}
{"binder": "B3", "values": [{"measurement": "Kd", "setting": "PBP1a [10]", "result": 45, "unit": "nM"}]}
